From article doi:10.1101/2020.10.21.349357 (bioRxiv, 2020)

What was measured:
[1] = biological target: linear tetra-ubiquitin (UniProt P0CG48 1-76; P0CG48 1-76; P0CG48 1-76; P0CG48 1-76); experiment: co-IP
[2] = biological target: linear hepta-ubiquitin (UniProt P0CG48 1-76; P0CG48 1-76; P0CG48 1-76; P0CG48 1-76; P0CG48 1-76; P0CG48 1-76; …); experiment: co-IP
Chain of linear hepta-ubiquitin (P0CG48 1-532, one chain of several): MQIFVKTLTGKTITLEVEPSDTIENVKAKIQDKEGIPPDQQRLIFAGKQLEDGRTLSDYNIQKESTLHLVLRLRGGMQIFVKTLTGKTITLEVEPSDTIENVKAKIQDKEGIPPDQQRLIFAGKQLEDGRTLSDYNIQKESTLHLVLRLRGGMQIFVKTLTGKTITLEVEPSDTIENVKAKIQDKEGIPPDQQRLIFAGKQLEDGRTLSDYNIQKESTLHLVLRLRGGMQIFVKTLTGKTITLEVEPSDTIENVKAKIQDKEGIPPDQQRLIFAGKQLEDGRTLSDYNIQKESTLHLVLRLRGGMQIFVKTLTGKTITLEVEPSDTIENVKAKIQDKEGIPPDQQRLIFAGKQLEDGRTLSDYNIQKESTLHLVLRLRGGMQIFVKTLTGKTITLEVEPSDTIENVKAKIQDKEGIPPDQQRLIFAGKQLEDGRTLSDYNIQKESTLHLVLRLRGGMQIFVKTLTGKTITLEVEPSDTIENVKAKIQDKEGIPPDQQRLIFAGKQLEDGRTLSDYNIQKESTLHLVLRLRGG

Chain of linear tetra-ubiquitin (P0CG48 1-304, one chain of several): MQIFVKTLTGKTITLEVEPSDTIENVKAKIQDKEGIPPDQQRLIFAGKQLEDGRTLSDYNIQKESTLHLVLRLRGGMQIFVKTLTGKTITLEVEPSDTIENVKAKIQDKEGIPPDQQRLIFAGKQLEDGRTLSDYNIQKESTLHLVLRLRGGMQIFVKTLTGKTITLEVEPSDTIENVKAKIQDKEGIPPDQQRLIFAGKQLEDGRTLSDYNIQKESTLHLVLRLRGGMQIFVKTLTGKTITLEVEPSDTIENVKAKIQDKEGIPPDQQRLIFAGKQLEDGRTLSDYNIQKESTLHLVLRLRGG

binding result [1]: binds
binding result [2]: binds
B1: HA-tagged N4BP1 (full length) (natural protein, human, UniProt O75113 1-896, looked up)
chain: MAARAVLDEFTAPAEKAELLEQSRGRIEGLFGVSLAVLGALGAEEPLPARIWLQLCGAQEAVHSAKEYIKGICEPELEERECYPKDMHCIFVGAESLFLKSLIQDTCADLCILDIGLLGIRGSAEAVVMARSHIQQFVKLFENKENLPSSQKESEVKREFKQFVEAHADNYTMDLLILPTSLKKELLTLTQGEENLFETGDDEVIEMRDSQQTEFTQNAATGLNISRDETVLQEEARNKAGTPVSELTKQMDTVLSSSPDVLFDPINGLTPDEEALSNERICQKRRFSDSEERHTKKQFSLENVQEGEILHDAKTLAGNVIADLSDSSADSENLSPDIKETTEEMEYNILVNFFKTMGYSQEIVEKVIKVYGPSTEPLLLLEEIEKENKRFQEDREFSAGTVYPETNKTKNKGVYSSTNELTTDSTPKKTQAHTQQNMVEKFSQLPFKVEAKPCTSNCRINTFRTVPIEQKHEVWGSNQNYICNTDPETDGLSPSVASPSPKEVNFVSRGASSHQPRVPLFPENGLHQQPEPLLPNNMKSACEKRLGCCSSPHSKPNCSTLSPPMPLPQLLPSVTDARSAGPSDHIDSSVTGVQRFRDTLKIPYKLELKNEPGRTDLKHIVIDGSNVAITHGLKKFFSCRGIAIAVEYFWKLGNRNITVFVPQWRTRRDPNVTEQHFLTQLQELGILSLTPARMVFGERIASHDDRFLLHLADKTGGIIVTNDNFREFVNESVSWREIITKRLLQYTFVGDIFMVPDDPLGRSGPRLEEFLQKEVCLRDMQPLLSALPNVGMFDPSFRVPGTQAASTSHQPPTRIQGAPSSHWLPQQPHFPLLPALPSLQQNLPMPAQRSSAETNELREALLKIFPDSEQRLKIDQILVAHPYMKDLNALSAMVLD
